Measured values published in paper PMC13138344, “Embryonic stem cell factors DPPA2/4 amplify active H3K4me3–H2AK119ub chromatin domains in non-small cell lung cancer” (Genes & Development, 2026).

T1: developmental pluripotency-associated 2 (DPPA2) (human (endogenous in NCI-H661), UniProt Q7Z7J5 1-298)
T1 construct: DPPA2, human, endogenous in NCI-H661 non-small cell lung cancer cells; source: endogenous, NCI-H661 whole-cell lysate (IP-MS); endogenous, NCI-H661 double-cross-linked chromatin (RIME)
T1 sequence (looked up): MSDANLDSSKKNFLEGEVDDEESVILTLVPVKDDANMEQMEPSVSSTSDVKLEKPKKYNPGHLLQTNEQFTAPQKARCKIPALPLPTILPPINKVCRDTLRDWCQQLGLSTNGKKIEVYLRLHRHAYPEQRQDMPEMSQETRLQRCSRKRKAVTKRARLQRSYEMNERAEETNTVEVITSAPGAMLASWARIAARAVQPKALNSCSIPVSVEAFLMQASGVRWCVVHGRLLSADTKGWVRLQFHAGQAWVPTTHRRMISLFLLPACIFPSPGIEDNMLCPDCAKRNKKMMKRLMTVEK

B1: developmental pluripotency-associated 4 (DPPA4) (natural protein, human (endogenous in NCI-H661), UniProt Q7L190 1-304, looked up)
chain: MLRGSASSTSMEKAKGKEWTSTEKSREEDQQASNQPNSIALPGTSAKRTKEKMSIKGSKVLCPKKKAEHTDNPRPQKKIPIPPLPSKLPPVNLIHRDILRAWCQQLKLSSKGQKLDAYKRLCAFAYPNQKDFPSTAKEAKIRKSLQKKLKVEKGETSLQSSETHPPEVALPPVGEPPALENSTALLEGVNTVVVTTSAPEALLASWARISARARTPEAVESPQEASGVRWCVVHGKSLPADTDGWVHLQFHAGQAWVPEKQEGRVSALFLLPASNFPPPHLEDNMLCPKCVHRNKVLIKSLQWE
notes: DPPA4, human, endogenous in NCI-H661 non-small cell lung cancer cells; source: endogenous, NCI-H661 whole-cell lysate (IP-MS); endogenous, NCI-H661 double-cross-linked chromatin (RIME)
B2: recombinant His-DPPA4 protein (natural protein, human, UniProt Q7L190 1-304, looked up)
chain: B1 chain
notes: DPPA4, human, recombinant; The construct is named only in the EMSA legend; also called recombinant DPPA4; source: recombinant
B3: recombinant DPPA2-Myc/FLAG protein (natural protein, human, UniProt Q7Z7J5 1-298, looked up)
chain: T1 sequence (looked up)
notes: DPPA2, human, recombinant; The construct is named only in the EMSA legend; source: recombinant

Assays:
[1] = molecular target: T1, developmental pluripotency-associated 2 …; experiment: affinity purification with mass spectrometry; IP of endogenous DPPA2 or DPPA4 from NCI-H661 whole-cell lysates, species-matched IgG IP control, label-free quantitation, n = 4 per condition; settings: partners not purified
[2] = molecular target: the molecule itself; experiment: mass photometry; recombinant DPPA2 and DPPA4 in vitro, each on its own and together
[3] = molecular target: B2; experiment: as above; settings: both partners purified

Row | Binder | ratio between DPPA2 and DPPA4 (iBAQ) in the DPPA2 IP [1] | binding result [2] | binding result [3]
1 | B1 | > 1 |  | 
2 | B2 |  | binds | 
3 | B3 |  | binds | binds
